Assay results published in publication PMC6003364.

Tests used:
[1] = biological target: periplasmic domain of TraE (plasmid pKM101); assay: cross-linking
[2] = biological target: N-terminally His-tagged, full-length TraE (VirB8 homolog) from plasmid pKM101 (plasmid pKM101); assay: negative-stain EM

Substance | stoichiometry N [1] | stoichiometry N [2]
periplasmic domain of TraE (domain or fragment) | 2 | 
N-terminally His-tagged, full-length TraE (VirB8 homolog) from plasmid pKM101 (natural protein) |  | 6
